In experiment [1] the target is T1, recombinant biotinylated CD71 extracellular domain (Sino Biologics) with an N-terminal 6His tag (human, UniProt P02786 89-760, biotinylated (sites not given)).
T1 construct: extracellular domain; also called hCD71; huCD71
Nature of the experiment: screening ELISA.

Experiment [2] concerns the target T1, recombinant biotinylated CD71 …. Nature of the experiment: screening ELISA, ratio.

Data on 33 molecules can be found in patent publication US20210145976A1 (ARO BIOTHERAPEUTICS, published 2021).

T1 sequence (P02786 other isoform, or with tags, fused parts or gaps): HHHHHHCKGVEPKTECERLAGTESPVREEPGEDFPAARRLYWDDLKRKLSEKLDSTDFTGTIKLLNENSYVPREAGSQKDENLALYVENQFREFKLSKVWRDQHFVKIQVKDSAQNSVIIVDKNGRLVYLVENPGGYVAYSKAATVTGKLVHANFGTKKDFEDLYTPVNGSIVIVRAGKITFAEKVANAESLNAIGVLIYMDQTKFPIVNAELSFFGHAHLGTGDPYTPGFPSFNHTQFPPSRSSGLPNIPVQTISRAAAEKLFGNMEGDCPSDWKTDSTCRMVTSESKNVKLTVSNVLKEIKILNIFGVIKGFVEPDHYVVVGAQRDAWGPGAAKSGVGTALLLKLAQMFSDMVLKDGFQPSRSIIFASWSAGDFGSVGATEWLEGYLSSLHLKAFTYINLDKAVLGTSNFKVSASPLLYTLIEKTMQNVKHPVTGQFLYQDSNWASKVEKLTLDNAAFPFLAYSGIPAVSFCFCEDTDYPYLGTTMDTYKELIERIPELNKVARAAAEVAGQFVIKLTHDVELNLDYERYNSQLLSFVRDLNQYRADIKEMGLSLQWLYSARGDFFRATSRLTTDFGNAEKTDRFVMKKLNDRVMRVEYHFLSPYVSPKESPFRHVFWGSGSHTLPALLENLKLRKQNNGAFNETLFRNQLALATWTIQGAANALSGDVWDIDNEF

B1: SEQ ID NO 97 (designed binder)
chain: MLPAPKNLVVSRVTEDSARLSWTAPDAAFDSFFISYFEGWASGEAIHLYVPGSERSYDLTGLKPGTEYSVHIQGVKGGQPSTPLSAIFTT
notes: FN3 domain
Consider B1, for which the hCD71 in experiment [1] was 2.41e+06. Moreover, the “hCD71:HSA” value in experiment [2] came to 1090.

B2: SEQ ID NO 121 (designed binder)
chain: MLPAPKNLVVSRVTEDSARLSWTAPDAAFDSFSIDYPEFPVRGEAIVLTVPGSERSYDLTGPKPGTEYNVTIQGVKGGFPSMPLSAIFTT
notes: FN3 domain
For B2, the hCD71 in experiment [1] was 2.37e+06. Also, the “hCD71:HSA” value in experiment [2] worked out at 83.

B3: SEQ ID NO 140 (designed binder)
chain: MLPAPKNLVVSRVTEDSARLSWTAPDAAFDSFWISYEESDTEGEAIYLRVPGSERSYDLTGLKPGTEYNVTIQGVKGGFPSMPLSAIFTT
notes: FN3 domain
B3: the hCD71 in experiment [1] was 4.18e+06. In addition, in experiment [2], the “hCD71:HSA” value was found to be 2610.

B4: SEQ ID NO 124 (designed binder)
chain: MLPAPKNLVVSRVTEDSARLSWTAPDAAFDSFSIDYPEFPVRGEAIVLTVPGSERSYDLTGLKPGTEYAVTIWGVKGGFTSQPLSAIFTT
notes: FN3 domain
For the molecule B4, in experiment [1], the hCD71 was 605000. Besides, in experiment [2], the “hCD71:HSA” value was 175.

B5: SEQ ID NO 91 (designed binder)
chain: MLPAPKNLVVSRVTEDSARLSWTAPDAAFDSFVIEYWERTQPGEAIVLTVPGSERSYDLTGLKPGTEYDVWISGVKGGKWSEPLSAIFTT
notes: FN3 domain
Regarding B5, in experiment [1], the hCD71 is 1.44e+06. In experiment [2], the “hCD71:HSA” value was found to be 800.

B6: SEQ ID NO 142 (designed binder)
chain: MLPAPKNLVVSRVTKDSARLSWTAPDAAFDSFHIAYEEATTYGEAIFLRVPGSERSYDLTGLKPGTEYEVKIHGVKGGADSKPLVAPFTT
notes: FN3 domain
With B6, the hCD71 in experiment [1] is 3.41e+06. The “hCD71:HSA” value in experiment [2] is 1000.

B7: SEQ ID NO 102 (designed binder)
chain: MLPAPKNLVVSRVTEDSARLSWTAPDAAFDSFSIDYDEPQPVGEAIVLTVPGSERSYDLTGLKPGTEYRVDIWGVKGGPTSGPLRATFTT
notes: FN3 domain
In the case of B7, the hCD71 in experiment [1] worked out at 3.48e+06. For the same molecule, in experiment [2], the “hCD71:HSA” value was found to be 258.

B8: SEQ ID NO 213 (designed binder)
chain: MLPAPKNLVVSRVTEDSARLSWTAPDAAFDSFWIYYWEIERAGEAIRLDVPGSERSYDLTGLKPGTEYRVDIWGVKGGPTSGPLRATFTT
notes: FN3 domain
As to B8, the hCD71 in experiment [1] was 2.11e+06. In addition, in experiment [2], the “hCD71:HSA” value is 215.

B9: SEQ ID NO 106 (designed binder)
chain: MLPAPKNLVVSRVTEDSARLSWTAPDAAFDSFTIAYEEHGLVGEAIYLRVPGSERSYDLTGLKPGTEYHVGIMGVKGGVFSSPLSAIFTT
notes: FN3 domain
For B9, the hCD71 in experiment [1] came out at 594000. Besides, in experiment [2], the “hCD71:HSA” value is 495.

B10: SEQ ID NO 109 (designed binder)
chain: MLPAPKNLVVSRVTEDSARLSWTAPDAAFDSFHIAYEELVTEGEAIYLRVPGSERSYDLTGLKPGTEYLVDIEGVKGGHLSSPLSAIFTT
notes: FN3 domain
Regarding B10, the hCD71 in experiment [1] worked out at 4.83e+06. Further, in experiment [2], the “hCD71:HSA” value came out at 3860.

B11: SEQ ID NO 220 (designed binder)
chain: MLPAPKNLVVSRVTEDSARLSWTAPDAAFDSFHIIYEEDGTEGEAIYLRVPGSERSYDLTGLKPGTEYEVDIEGVKGGVLSWPLFAEFTT
notes: FN3 domain
For B11, the hCD71 in experiment [1] was determined as 4.25e+06. For the same molecule, the “hCD71:HSA” value in experiment [2] came to 452.

B12: SEQ ID NO 162 (designed binder)
chain: MLPAPKNLVVSRVTEDSARLSWTAPDAAFDSFHIAYEEATTYGEAIFLRVPGSERSYDLTGLKPGTEYDVWIEGVKGGTISGPLSAIFTT
notes: FN3 domain
As for B12, the hCD71 in experiment [1] worked out at 3.88e+06. For the same molecule, the “hCD71:HSA” value in experiment [2] worked out at 2100.

B13: SEQ ID NO 100 (designed binder)
chain: MLPAPKNLVVSRVTEDSARLSWTAPDAAFDSFWIEYWEVVGFGEAIVLTVPGSERSYDLTGLKPGTEYWVGIYGVKGGNPSVPLSAIFTT
notes: FN3 domain
Regarding B13, the hCD71 in experiment [1] is 2.95e+06. Further, the “hCD71:HSA” value in experiment [2] was 1260.

B14: SEQ ID NO 103 (designed binder)
chain: MLLAPKNLVVSRVTEDSARLSWTAPDAAFDSFAIEYFEYTGEGEAIVLTVPGSERSYDLTGLKPGTEYYVGIYGVKGGYLSRPLSAIFTT
notes: FN3 domain
On to B14, for which the hCD71 in experiment [1] was determined as 4.83e+06. The “hCD71:HSA” value in experiment [2] turned out to be 4020.

B15: SEQ ID NO 157 (designed binder)
chain: MLPAPKNLVVSRVTEDSARLSWTAPDAAFDSFAIEYYEYVGNGEAIVLTVPGSERSYDLTGLKPGTEYQVGIYGVKGGYYSRPLSAIFTT
notes: FN3 domain
As for B15, the hCD71 in experiment [1] came out at 2.66e+06. For the same molecule, the “hCD71:HSA” value in experiment [2] came to 1080.

B16: SEQ ID NO 129 (designed binder)
chain: MLPAPKNLVVSRVTEDSARLSWTAPDAAFDSFDIEYYEAVGAGEAIVLTVPGSERSYDLTGLKPGTEYTVGIYGVKGGWLSKPLSVIFTT
notes: FN3 domain
Consider B16, for which, in experiment [1], the hCD71 came out at 2.31e+06. The “hCD71:HSA” value in experiment [2] was 1540.

B17: SEQ ID NO 153 (designed binder)
chain: MLPAPKNLVVSRVTEDSARLSWTAPDAALDSFRIAYTEYFVGGEAIVLTVPGSERSYDLTGLKPGTEYGVGIYGVKGGAGSSPLSAIFTT
notes: FN3 domain
With B17, the hCD71 in experiment [1] came to 957000. Further, the “hCD71:HSA” value in experiment [2] was determined as 73.

B18: SEQ ID NO 127 (designed binder)
chain: MLPAPKNLVVSRVTEDSARLSWTAPDAAFDSFPIPYGESPPSGEAIVLTVPGSERSYDLTGLKPGTEYVVIIRGVKGGGRSGPLSAISTT
notes: FN3 domain
With B18, the hCD71 in experiment [1] was 3.56e+06. In addition, the “hCD71:HSA” value in experiment [2] was 38.

B19: SEQ ID NO 130 (designed binder)
chain: MLPAPKNLVVSRVTEDSARLSWTAPDAAFDSFHIPYVEAEVPGEAIQLHVPGSERSYDLTGLKPGTEYYVEIWGVKGGFYSPPLIAEFTT
notes: FN3 domain
With B19, in experiment [1], the hCD71 came to 1.45e+06. Moreover, the “hCD71:HSA” value in experiment [2] came out at 239.

B20: SEQ ID NO 128 (designed binder)
chain: MLPAPKNLVVSRVTEDSARLSWTAPDAAFDSFIINYIEIVQYGEAIVLTVPGSERSYDLTGLKPGTEYPESIWGVKGGGASSPLSAIFTT
notes: FN3 domain
For B20, the hCD71 in experiment [1] was found to be 664000. Further, the “hCD71:HSA” value in experiment [2] came to 204.

B21: SEQ ID NO 113 (designed binder)
chain: MLPAPKNLVVSRVTEDSARLSWTAPDAAFDSFDIHYKEHSWWGEAIVLTVPGSERSYDLTGLKPGTEYIVPIPGVKGGGISRPLSAIFTT
notes: FN3 domain
B21: the hCD71 in experiment [1] was found to be 2.14e+06. Further, the “hCD71:HSA” value in experiment [2] came to 95.

B22: SEQ ID NO 148 (designed binder)
chain: MLPAPKNLVVSRVTEDSARLSWTAPDAAFDSFHIEYEEQYSTGEAIYLRVPGSERSYDLTGLKPGTEYHVDIEGVKGGRRSFPLNAFFTT
notes: FN3 domain
B22: in experiment [1], the hCD71 is 3.98e+06. Moreover, in experiment [2], the “hCD71:HSA” value amounted to 1990.

B23: SEQ ID NO 126 (designed binder)
chain: MLPAPKNLVVSRVTEDSARLSWTAPDAAFDSFSIDYLELGESGEAIVLTVPGSERSYDLTGLKPGTEYWVYIFGVKGGYPSAPLSAIFTT
notes: FN3 domain
In the case of B23, in experiment [1], the hCD71 came out at 4.49e+06. The “hCD71:HSA” value in experiment [2] was 2570.

B24: SEQ ID NO 139 (designed binder)
chain: MLPAPKNLVVSRVTEDSARLSWTAPDAAFDSFDISYWESGKYGEAIVLTVPGSESSYDLTGLKPGTEYLVDIFGVKGGYPSEPLSAIFTT
notes: FN3 domain
On to B24, for which, in experiment [1], the hCD71 amounted to 3.03e+06. The “hCD71:HSA” value in experiment [2] was 1440.

B25: SEQ ID NO 143 (designed binder)
chain: MLPAPKNLVVSRVTEDSARLSWTAPDAAFDSFHIAYEEADSEGEAIYLRVPGSERSYDLTGLKPGTEYSVNIQGVKGGIVSFPLHAEFTT
notes: FN3 domain
In the case of B25, in experiment [1], the hCD71 was 3.94e+06. For the same molecule, the “hCD71:HSA” value in experiment [2] came out at 426.

B26: SEQ ID NO 161 (designed binder)
chain: MLPAPKNLVVSRVTEDSARLSWTAPDAAFDSFTIRYWEELPTGEAIVLTVPGSERSYDLTGLKPGTEYTVEIFGVKGGYLSRPLSAISTT
notes: FN3 domain
As for B26, the hCD71 in experiment [1] was 1.21e+06. Besides, the “hCD71:HSA” value in experiment [2] amounted to 240.

B27: SEQ ID NO 155 (designed binder)
chain: MLPAPKNLVVSRVTEDSARLSWTAPDAAFDSFPITYRERSQYGEAIVLTVPGSERSYDLTGLKPGTEYVVPIEGVKGGRGSKPLSAIFTT
notes: FN3 domain
Take B27: the hCD71 in experiment [1] turned out to be 1.84e+06. For the same molecule, the “hCD71:HSA” value in experiment [2] stood at 71.

B28: SEQ ID NO 111 (designed binder)
chain: MLPAPKNLVVSRVTEDSARLSWTAPDAAFDSFWIYYYESVGTGEAIVLTVPGSERSYDLTGLKPGTEYFVDISGVKVGTYSLPLSAIFTT
notes: FN3 domain
Turning to B28, in experiment [1], the hCD71 is 2.4e+06. In experiment [2], the “hCD71:HSA” value is 322.

B29: SEQ ID NO 120 (designed binder)
chain: MLPAPKNLVVSRVTEDSARLSWTAPDAAFDSFRIEYIEWWVGGEAIVLTVPGSERSYDLTGLKPGTEYWVDIKGVKGGKRSYPLSAIFTT
notes: FN3 domain
Regarding B29, in experiment [1], the hCD71 was determined as 3.64e+06. In addition, the “hCD71:HSA” value in experiment [2] turned out to be 1970.

B30: SEQ ID NO 99 (designed binder)
chain: MLPAPKNLVVSRVTEDSARLSWTAPDAAFDSFGIQYNEFVFRGEAIVLTVPGSERSYDLTGLKPGTEYFVPISGVKGGDDSRPLSAIFTT
notes: FN3 domain
As for B30, the hCD71 in experiment [1] worked out at 853000. Further, the “hCD71:HSA” value in experiment [2] worked out at 105.

B31: SEQ ID NO 107 (designed binder)
chain: MLPAPKNLVVSRVTEDSARLSWTAPDAAFDSFFIQYTESHWVGEAIVLTVPGSERSYDLTGLKPGTEYAVPIEGVKGGDSSTPLSAIFTT
notes: FN3 domain
Turning to B31, in experiment [1], the hCD71 turned out to be 420000. In addition, the “hCD71:HSA” value in experiment [2] is 104.

B32: SEQ ID NO 94 (designed binder)
chain: MLPAPKNLVVSRITEDSARLSWTAPDAAFDSFGIYYYEWWSTGEAIVLTVPGSERSYDLTGPKPGTEYYVKISGVKGGYRSYPLSAIFTT
notes: FN3 domain
For the molecule B32, in experiment [1], the hCD71 amounted to 439000. For the same molecule, the “hCD71:HSA” value in experiment [2] is 44.

B33: SEQ ID NO 119 (designed binder)
chain: MLPAPKNLVVSRVTEDSARLSWTAPDAAFDSFHIEYEETPQKGEAIFLRVPGSERSYDLTGLKPGTEYVVNIRGVKGGDLSSPLGALFTT
notes: FN3 domain
With B33, in experiment [1], the hCD71 worked out at 3.16e+06. Moreover, the “hCD71:HSA” value in experiment [2] is 1710.
